Tests used:
Assay in all cases: cell-based or functional assay
[1] = biological target: HIV-1 Env of pseudovirus R1166.c01 (HIV-1)
[2] = biological target: HIV-1 Env of pseudovirus 6545.v4.c1 (HIV-1)
[3] = biological target: HIV-1 Env of pseudovirus 3103.v3.c10 (HIV-1)
[4] = biological target: HIV-1 Env of pseudovirus 9004SS_A3_4 (HIV-1)
[5] = biological target: HIV-1 Env of pseudovirus C3347.c11 (HIV-1)
[6] = biological target: HIV-1 Env of pseudovirus 3301.v1.c24 (HIV-1)
[7] = biological target: HIV-1 Env of pseudovirus BJOX015000.11.5 (HIV-1)
[8] = biological target: HIV-1 Env of pseudovirus X1254_c3 (HIV-1)
[9] = biological target: HIV-1 Env of pseudovirus C1080.c03 (HIV-1)
[10] = biological target: HIV-1 Env of pseudovirus 6952.v1.c20 (HIV-1)
[11] = biological target: HIV-1 Env of pseudovirus 6540.v4.c1 (HIV-1)
[12] = biological target: HIV-1 Env of pseudovirus BJOX028000.10.3 (HIV-1)
[13] = biological target: HIV-1 Env of pseudovirus A07412M1.vrc12 (HIV-1)
[14] = biological target: HIV-1 Env of pseudovirus T257-31 (HIV-1)
[15] = biological target: HIV-1 Env of pseudovirus 235-47 (HIV-1)
[16] = biological target: HIV-1 Env of pseudovirus BJOX025000.01.1 (HIV-1)
[17] = biological target: HIV-1 Env of pseudovirus R3265.c06 (HIV-1)
[18] = biological target: HIV-1 Env of pseudovirus 6811.v7.c18 (HIV-1)
[19] = biological target: HIV-1 Env of pseudovirus R2184.c04 (HIV-1)
[20] = biological target: HIV-1 Env of pseudovirus 3817.v2.c59 (HIV-1)
[21] = biological target: HIV-1 Env of pseudovirus T278-50 (HIV-1)
[22] = biological target: HIV-1 Env of pseudovirus 263-8 (HIV-1)
[23] = biological target: HIV-1 Env of pseudovirus 928-28 (HIV-1)
[24] = biological target: HIV-1 Env of pseudovirus X1632_S2_B10 (HIV-1)
[25] = biological target: HIV-1 Env of pseudovirus 231965.c01 (HIV-1)
[26] = biological target: HIV-1 Env of pseudovirus X2088_c9 (HIV-1)
[27] = biological target: HIV-1 Env of pseudovirus X1193_c1 (HIV-1)
[28] = biological target: HIV-1 Env of pseudovirus 231966.c02 (HIV-1)
[29] = biological target: HIV-1 Env of pseudovirus T251-18 (HIV-1)
[30] = biological target: HIV-1 Env of pseudovirus 0815.v3.c3 (HIV-1)
[31] = biological target: HIV-1 Env of pseudovirus 6480.v4.c25 (HIV-1)
[32] = biological target: HIV-1 Env of pseudovirus 620345.c01 (HIV-1)
[33] = biological target: HIV-1 Env of pseudovirus 3016.v5.c45 (HIV-1)
[34] = biological target: HIV-1 Env of pseudovirus 6041.v3.c23 (HIV-1)
[35] = biological target: HIV-1 Env of pseudovirus P0402_c2_11 (HIV-1)
[36] = biological target: HIV-1 Env of pseudovirus X2131_C1_B5 (HIV-1)

## N49P9.1 (antibody)
[1]
  neutralization IC50: 0.073 µg/mL
  neutralization IC80: 0.232 µg/mL
  neutralization MPI: 100
[2]
  neutralization IC50: > 50 µg/mL
  neutralization IC80: > 50 µg/mL
  neutralization MPI: 6
[3]
  neutralization IC50: > 50 µg/mL
  neutralization IC80: > 50 µg/mL
  neutralization MPI: 45
[4]
  neutralization IC50: 0.323 µg/mL
  neutralization IC80: 1.13 µg/mL
  neutralization MPI: 100
[5]
  neutralization IC50: 0.029 µg/mL
  neutralization IC80: 0.083 µg/mL
  neutralization MPI: 100
[6]
  neutralization IC50: 0.059 µg/mL
  neutralization IC80: 0.178 µg/mL
  neutralization MPI: 100
[7]
  neutralization IC50: 0.068 µg/mL
  neutralization IC80: 0.478 µg/mL
  neutralization MPI: 100
[8]
  neutralization IC50: 0.101 µg/mL
  neutralization IC80: 0.278 µg/mL
  neutralization MPI: 100
[9]
  neutralization IC50: 0.156 µg/mL
  neutralization IC80: 0.939 µg/mL
  neutralization MPI: 100
[10]
  neutralization IC50: 0.119 µg/mL
  neutralization IC80: 0.389 µg/mL
  neutralization MPI: 100
[11]
  neutralization IC50: > 50 µg/mL
  neutralization IC80: > 50 µg/mL
  neutralization MPI: 30
[12]
  neutralization IC50: 0.04 µg/mL
  neutralization IC80: 0.2 µg/mL
  neutralization MPI: 100
[13]
  neutralization IC50: 0.189 µg/mL
  neutralization IC80: 0.947 µg/mL
  neutralization MPI: 100
[14]
  neutralization IC50: 0.508 µg/mL
  neutralization IC80: 1.82 µg/mL
  neutralization MPI: 100
[15]
  neutralization IC50: 0.045 µg/mL
  neutralization IC80: 0.352 µg/mL
  neutralization MPI: 98
[16]
  neutralization IC50: 0.131 µg/mL
  neutralization IC80: 0.67 µg/mL
  neutralization MPI: 100
[17]
  neutralization IC50: 0.469 µg/mL
  neutralization IC80: 1.62 µg/mL
  neutralization MPI: 100
[18]
  neutralization IC50: 0.398 µg/mL
  neutralization IC80: 1.76 µg/mL
  neutralization MPI: 97
[19]
  neutralization IC50: 0.019 µg/mL
  neutralization IC80: 0.057 µg/mL
  neutralization MPI: 100
[20]
  neutralization IC50: 1.35 µg/mL
  neutralization IC80: 8.26 µg/mL
  neutralization MPI: 95
[21]
  neutralization IC50: > 50 µg/mL
  neutralization IC80: > 50 µg/mL
  neutralization MPI: 5
[22]
  neutralization IC50: 0.049 µg/mL
  neutralization IC80: 0.17 µg/mL
  neutralization MPI: 100
[23]
  neutralization IC50: 0.163 µg/mL
  neutralization IC80: 0.695 µg/mL
  neutralization MPI: 100
[24]
  neutralization IC50: > 50 µg/mL
  neutralization IC80: > 50 µg/mL
  neutralization MPI: 10
[25]
  neutralization IC50: 0.474 µg/mL
  neutralization IC80: 2.24 µg/mL
  neutralization MPI: 100
[26]
  neutralization IC50: 0.091 µg/mL
  neutralization IC80: 0.392 µg/mL
  neutralization MPI: 100
[27]
  neutralization IC50: 0.042 µg/mL
  neutralization IC80: 0.15 µg/mL
  neutralization MPI: 100
[28]
  neutralization IC50: 0.067 µg/mL
  neutralization IC80: 0.237 µg/mL
  neutralization MPI: 100
[29]
  neutralization IC50: 0.127 µg/mL
  neutralization IC80: 0.352 µg/mL
  neutralization MPI: 100
[30]
  neutralization IC50: 0.012 µg/mL
  neutralization IC80: 0.041 µg/mL
  neutralization MPI: 100
[31]
  neutralization IC50: 0.03 µg/mL
  neutralization IC80: 0.082 µg/mL
  neutralization MPI: 100
[32]
  neutralization IC50: > 50 µg/mL
  neutralization IC80: > 50 µg/mL
  neutralization MPI: 7
[33]
  neutralization IC50: 0.076 µg/mL
  neutralization IC80: 0.223 µg/mL
  neutralization MPI: 100
[34]
  neutralization IC50: 0.282 µg/mL
  neutralization IC80: 6.78 µg/mL
  neutralization MPI: 90
[35]
  neutralization IC50: 0.06 µg/mL
  neutralization IC80: 0.163 µg/mL
  neutralization MPI: 100
[36]
  neutralization IC50: 0.143 µg/mL
  neutralization IC80: 0.476 µg/mL
  neutralization MPI: 100
